In patent US20250243263A1:

Experiments:
[1] = target: tPeptide 5 (204-222) (human); assay: one point ELISA
[2] = target: pS199-old (SCBio-4PEG-Peptide, Tau191-214) (human); assay: one point ELISA
[3] = target: Tau191-214 phospho-peptide (pT205) (human); assay: one point ELISA
[4] = target: Tau191-214 phospho-peptide (pS199/pS202) (human); assay: one point ELISA
[5] = target: Tau191-214 phospho-peptide (pS199/pS202/pT205) (human); assay: one point ELISA
[6] = target: Tau191-214 phospho-peptide (pS202) (human); assay: one point ELISA
Sequence of Tau191-214 phospho-peptide (pS202) (human) (peptide, as listed by the source): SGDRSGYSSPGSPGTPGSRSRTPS

[7] = target: Tau191-214 phospho-peptide (pS202/pT205) (human); assay: one point ELISA
[8] = target: Tau191-214 phospho-peptide (pS199/pT205) (human); assay: one point ELISA
[9] = target: Tau191-214 phospho-peptide (pS199) (human); assay: one point ELISA
[10] = target: AT8 peptide (amino acids 195-215 of tau) (human); assay: BLI (Octet), phospho-peptide on streptavidin tips
Sequence of AT8 peptide (amino acids 195-215 of tau) (human) (peptide, as listed by the source): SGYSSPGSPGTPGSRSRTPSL

[11] = target: Tau204-222 phospho-peptide (pT212/pT217) (human); assay: one point ELISA
[12] = target: Tau204-222 phospho-peptide (pT212/pS214/pT217) (human); assay: one point ELISA
[13] = target: Tau204-222 phospho-peptide (pS214/pT217) (human); assay: one point ELISA
[14] = target: Tau204-222 phospho-peptide (pT217) (human); assay: one point ELISA
[15] = target: Tau204-222 phospho-peptide (pT212) (human); assay: one point ELISA
[16] = target: Tau204-222 phospho-peptide (pS214) (human); assay: one point ELISA
[17] = target: Tau204-222 phospho-peptide (pT212/pS214) (human); assay: one point ELISA
[18] = target: Tau217-234 phospho-peptide (pT217/pT220/pT231) (human); assay: BLI
[19] = target: Tau225-240 phospho-peptide (pT231) (human); assay: BLI

OD (450 nm) [1] [OD450]	OD (450 nm) [2] [OD450]	OD (450 nm) [3] [OD450]	OD (450 nm) [4] [OD450]	OD (450 nm) [5] [OD450]	OD (450 nm) [6] [OD450]	OD (450 nm) [7] [OD450]	OD (450 nm) [8] [OD450]	OD (450 nm) [9] [OD450]	Kd [10] [pM]	OD (450 nm) [11] [OD450]	OD (450 nm) [12] [OD450]	OD (450 nm) [13] [OD450]	OD (450 nm) [14] [OD450]	OD (450 nm) [15] [OD450]	OD (450 nm) [16] [OD450]	OD (450 nm) [17] [OD450]	Kd [18] [pM]	Kd [19] [pM]	Substance
0.281	–	–	–	–	–	–	–	–	–	–	–	–	–	–	–	–	–	–	IPN002-hIgG1 (antibody)
–	0.056	0.065	2.39	3.07	0.058	2.94	0.139	0.056	309	–	–	–	–	–	–	–	–	–	anti-tau antibody AT8 (ThermoFisher, Waltham, MA)
0.141	0.06	0.054	0.062	0.245	0.055	0.249	0.09	0.058	–	0.057	0.053	0.059	0.083	0.06	0.061	0.059	–	–	hIgG1 isotype control (antibody)
–	–	–	–	–	–	–	–	–	–	–	–	–	–	–	–	–	5	6	AT180 (antibody)
–	–	–	–	–	–	–	–	–	–	0.069	0.187	0.067	0.068	0.069	0.065	0.071	–	–	anti-tau antibody AT100 (ThermoFisher, Waltham, MA)
2.81	–	–	–	–	–	–	–	–	–	3.16	3.17	3.13	3.13	3.16	3.14	3.14	–	–	PT3-hIgG1 (antibody)
